In patent US20090252717A1, “Compositions and Methods for Treating Polyglutamine-Expansion Neurodegenerative Diseases” (priority 2006, published 2009):

Columns and labels:
kinesin-1 heavy chain = target: T1, kinesin-1 heavy chain (Rattus norvegicus, UniProt P56536); test: Binding of kinesin-1 to microtubules after JNK3 treatment; assay type: biochemical; conditions: kinesin-1 heavy chain treated with JNK3 kinase
T1 construct: coding for the first 584 amino acids of rat KHC (KHC-584); made in house; host or cells: E. coli
T1 sequence (P56536 1-584 limits assumed): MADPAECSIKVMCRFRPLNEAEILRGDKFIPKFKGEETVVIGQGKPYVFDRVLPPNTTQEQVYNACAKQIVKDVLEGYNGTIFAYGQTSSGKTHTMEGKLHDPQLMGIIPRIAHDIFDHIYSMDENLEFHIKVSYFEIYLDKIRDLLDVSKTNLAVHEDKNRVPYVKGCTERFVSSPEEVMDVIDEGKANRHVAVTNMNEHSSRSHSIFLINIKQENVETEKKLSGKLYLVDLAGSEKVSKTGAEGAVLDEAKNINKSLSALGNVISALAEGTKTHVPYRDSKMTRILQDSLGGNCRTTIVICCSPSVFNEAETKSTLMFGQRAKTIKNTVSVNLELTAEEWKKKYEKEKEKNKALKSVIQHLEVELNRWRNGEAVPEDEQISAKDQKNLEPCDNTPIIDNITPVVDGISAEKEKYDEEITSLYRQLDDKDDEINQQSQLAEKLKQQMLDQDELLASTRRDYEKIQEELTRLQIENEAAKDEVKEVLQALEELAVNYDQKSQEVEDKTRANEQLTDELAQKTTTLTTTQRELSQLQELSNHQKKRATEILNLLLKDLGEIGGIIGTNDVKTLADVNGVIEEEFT
Method: Microtubule Binding Assays. Microtubule binding assays was performed according to established methods (Stenoien & Brady (1997) supra). Briefly, three 70% confluent 100-mm culture dishes containing either wild-type or 902-6 SH-SY5Y cells were homogenized with 500 μl of HEM buffer (50 mM HEPES, 1 mM EGTA, 2 mM MgSO4, 1% TRITON X-100, pH 7.2, 1 μM staurosporine, 1 μM K252a, 50 nM okadaic acid and 1/100 mammalian protease inhibitor cocktail (Sigma) at 4° C. Lysates were centrifuged at 50000 rpm for 5 minutes at 4° C.
Six hundred μg of total protein from clarified wild-type or 902-6 SH-SY5Y cells were incubated with 0.2 mg of TAXOL-stabilized microtubules (Cytoskeleton, Denver, Colo.) and 2.5 mM AMP-PNP for 30 minutes at 37° C. Samples were centrifuged for 25 minutes at 50000 rpm (4° C.) over a cushion of 20% sucrose in HEM plus 20 μM TAXOL. Pellets and supernatants were collected and the amount of kinesin in each fraction was assayed by immunoblot with anti-kinesin monoclonal antibodies.
In Vitro Kinesin-1 Phosphorylation. A recombinant cDNA fragment coding for the first 584 amino acids of rat KHC (KHC-584) was subcloned into pET expression vector, expressed in E. coli and purified by nickel affinity chromatography (Qiagen, Valencia, Calif.). […]

fast axonal transport = test: Vesicle motility assay in isolated squid axoplasm, perfusion of recombinant protein alone; assay type: cell-based, squid Loligo pealeii
Method: Recombinant Polypeptides. Wild-type androgen receptor and polyQ-AR polypeptides were produced by in vitro transcription/translation (TNT T7-Coupled Reticulocyte Lysate System; Promega, Madison, Wis.) according to manufacturer's protocols. Typically, 1.8 μg of plasmid was transcribed in 50 μl reaction mix. To assess protein levels, parallel reactions were performed incorporating ^35S-labeled methionine (Amersham) or quantitative immunoblots were performed. Protein concentrations were typically 0.2-0.5 nM. In vitro translated androgen receptor has been characterized and shown to be functional (Kuiper, et al. (1993) Biochem. J. 296(Pt 1):161-7). In vitro translation products were briefly centrifuged to eliminate translation machinery, and supernatants frozen in liquid N2 until used.
Genes encoding human wild-type Huntingtin (Htt) (i.e., Q20, residues 1-548; Szebenyi, et al. (2003) supra) and polyQ-expanded Htt (i.e., Q46, residues 1-949; Qin, et al. (2004) J. Neurosci. 24(1):269-81) were cloned into the pcDNA.3 vector and produced by in vitro transcription/translation as described for the androgen receptor. Alternatively, shorter constructs (Htt exon1) were expressed in E. coli as GST-tagged proteins.
Squid Axoplasm. Isolated squid axoplasm represents a unique experimental system to evaluate axonal-specific effects and pathogenic mechanisms. This model was instrumental in the original discovery of kinesin-1 (Brady (1985) Nature 317:73-75, novel pathways for fast axonal transport (Morfini, et al. (2002) supra; Morfini, et al. (2004) supra), and axonal-specific phosphorylation events (Grant & Pant (2000) J. Neurocytol. 29:843-72). Bidirectional membrane-bound organelle movements are observed with properties unchanged from intact axons for hours after removal of plasma membrane (Brady, et al. (1982) Science 218:1129-1131). Video-enhanced microscopic techniques allow quantitative analysis of membrane-bound organelle movement in fast axonal transport. Typical kinesin-dependent transport rates are 1.5-2.0 μm/s, whereas retrograde, cytoplasmic dynein-dependent rates are 1-1.3 μm/s in perfused axoplasms. These rates are maintained with little (<10%) or no reduction for >1 hour after perfusion with control buffer (Brady, et al. (1982) supra). The lack of permeability barriers allows perfusion of the axoplasm with a variety of effector molecules at known concentrations. Effectors of interest include nucleotides, pharmacological inhibitors, recombinant polypeptides, and antibodies. Typically, 6-His, Hemagglutinin, Myc and GST-tagged recombinant proteins are either expressed in bacteria or in vitro translated, purified and perfused (Szebenyi, et al. (2003) supra; Morfini, et al. (2002) supra).
Motility Studies in Isolated Axoplasm. Axoplasm was extruded from giant axons of the squid Loligo pealeii (Marine Biological Laboratory, Woods Hole, Mass.) as described (Brady, et al. (1985) Cell Motil. 5:81-101). Axons were 400-600 μm in diameter and provided ≈5 μl of axoplasm. […] Preparations were analyzed on a ZEISS AXIOMAT with a 100×, 1.3 n.a. objective, and DIC optics. […] Organelle velocities were measured with a Photonics Microscopy C2117 video manipulator (Hamamatsu).

[1] = perfused, concentration not given

B1: JNK3: recombinant, active JNK3 protein (protein, UniProt P53779 1-464, looked up)
Mitogen-activated protein …: MSLHFLYYCSEPTLDVKIAFCQGFDKQVDVSYIAKHYNMSKSKVDNQFYSVEVGDSTFTVLKRYQNLKPIGSGAQGIVCAAYDAVLDRNVAIKKLSRPFQNQTHAKRAYRELVLMKCVNHKNIISLLNVFTPQKTLEEFQDVYLVMELMDANLCQVIQMELDHERMSYLLYQMLCGIKHLHSAGIIHRDLKPSNIVVKSDCTLKILDFGLARTAGTSFMMTPYVVTRYYRAPEVILGMGYKENVDIWSVGCIMGEMVRHKILFPGRDYIDQWNKVIEQLGTPCPEFMKKLQPTVRNYVENRPKYAGLTFPKLFPDSLFPADSEHNKLKASQARDLLSKMLVIDPAKRISVDDALQHPYINVWYDPAEVEAPPPQIYDKQLDEREHTIEEWKELIYKEVMNSEEKTKNGVVKGQPSPSGAAVNSSESLPPSSSVNDISSMSTDQTLASDTDSSLEASAGPLGCCR
effect on binding of kinesin-1 to microtubules (kinesin-1 heavy chain): inhibits the binding of kinesin-1 to microtubules
mean rate for anterograde fast axonal transport (fast axonal transport; [1]): 0.9 µM/s
retrograde, cytoplasmic dynein-dependent fast axonal transport mean rate (fast axonal transport; [1]): 1.25 µM/s

B2: JNK1: recombinant, active JNK1 protein (protein, UniProt P45983 1-427, looked up)
Mitogen-activated protein …: MSRSKRDNNFYSVEIGDSTFTVLKRYQNLKPIGSGAQGIVCAAYDAILERNVAIKKLSRPFQNQTHAKRAYRELVLMKCVNHKNIIGLLNVFTPQKSLEEFQDVYIVMELMDANLCQVIQMELDHERMSYLLYQMLCGIKHLHSAGIIHRDLKPSNIVVKSDCTLKILDFGLARTAGTSFMMTPYVVTRYYRAPEVILGMGYKENVDLWSVGCIMGEMVCHKILFPGRDYIDQWNKVIEQLGTPCPEFMKKLQPTVRTYVENRPKYAGYSFEKLFPDVLFPADSEHNKLKASQARDLLSKMLVIDASKRISVDEALQHPYINVWYDPSEAEAPPPKIPDKQLDEREHTIEEWKELIYKEVMDLEERTKNGVIRGQPSPLGAAVINGSQHPSSSSSVNDVSSMSTDPTLASDTDSSLEAAAGPLGCCR
effect on fast axonal transport (fast axonal transport; perfused at 200 nM): did not show any effect on either direction of fast axonal transport

B3: polyQ-Htt: polyQ-expanded Huntingtin (Q46, residues 1-949) produced by in vitro transcription/translation (protein, UniProt P42858 1-949, looked up, fragment)
chain: MATLEKLMKAFESLKSFQQQQQQQQQQQQQQQQQQQQQPPPPPPPPPPPQLPQPPPQAQPLLPQPQPPPPPPPPPPGPAVAEEPLHRPKKELSATKKDRVNHCLTICENIVAQSVRNSPEFQKLLGIAMELFLLCSDDAESDVRMVADECLNKVIKALMDSNLPRLQLELYKEIKKNGAPRSLRAALWRFAELAHLVRPQKCRPYLVNLLPCLTRTSKRPEESVQETLAAAVPKIMASFGNFANDNEIKVLLKAFIANLKSSSPTIRRTAAGSAVSICQHSRRTQYFYSWLLNVLLGLLVPVEDEHSTLLILGVLLTLRYLVPLLQQQVKDTSLKGSFGVTRKEMEVSPSAEQLVQVYELTLHHTQHQDHNVVTGALELLQQLFRTPPPELLQTLTAVGGIGQLTAAKEESGGRSRSGSIVELIAGGGSSCSPVLSRKQKGKVLLGEEEALEDDSESRSDVSSSALTASVKDEISGELAASSGVSTPGSAGHDIITEQPRSQHTLQADSVDLASCDLTSSATDGDEEDILSHSSSQVSAVPSDPAMDLNDGTQASSPISDSSQTTTEGPDSAVTPSDSSEIVLDGTDNQYLGLQIGQPQDEDEEATGILPDEASEAFRNSSMALQQAHLLKNMSHCRQPSDSSVDKFVLRDEATEPGDQENKPCRIKGDIGQSTDDDSAPLVHCVRLLSASFLLTGGKNVLVPDRDVRVSVKALALSCVGAAVALHPESFFSKLYKVPLDTTEYPEEQYVSDILNYIDHGDPQVRGATAILCGTLICSILSRSRFHVGDWMGTIRTLTGNTFSLADCIPLLRKTLKDESSVTCKLACTAVRNCVMSLCSSSYSELGLQLIIDVLTLRNSSYWLVRTELLETLAEIDFRLVSFLEAKAENLHRGAHHYTGLLKLQERVLNNVVIHLLGDEDPRVRHVAAASLIRLVPKLFYKCDQGQADP
modifications: polyQ expanded to Q46
notes: polyQ-expanded Huntingtin (Q46, residues 1-949) produced by in vitro transcription/translation
effect on fast axonal transport (fast axonal transport; perfused alone): striking inhibition of fast axonal transport rates

B4: wild-type Htt: human wild-type Huntingtin (Q20, residues 1-548) produced by in vitro transcription/translation (protein, UniProt P42858 1-548, looked up, fragment)
chain: MATLEKLMKAFESLKSFQQQQQQQQQQQQQQQQQQQQQPPPPPPPPPPPQLPQPPPQAQPLLPQPQPPPPPPPPPPGPAVAEEPLHRPKKELSATKKDRVNHCLTICENIVAQSVRNSPEFQKLLGIAMELFLLCSDDAESDVRMVADECLNKVIKALMDSNLPRLQLELYKEIKKNGAPRSLRAALWRFAELAHLVRPQKCRPYLVNLLPCLTRTSKRPEESVQETLAAAVPKIMASFGNFANDNEIKVLLKAFIANLKSSSPTIRRTAAGSAVSICQHSRRTQYFYSWLLNVLLGLLVPVEDEHSTLLILGVLLTLRYLVPLLQQQVKDTSLKGSFGVTRKEMEVSPSAEQLVQVYELTLHHTQHQDHNVVTGALELLQQLFRTPPPELLQTLTAVGGIGQLTAAKEESGGRSRSGSIVELIAGGGSSCSPVLSRKQKGKVLLGEEEALEDDSESRSDVSSSALTASVKDEISGELAASSGVSTPGSAGHDIITEQPRSQHTLQADSVDLASCDLTSSATDGDEEDILSHSSSQVSAVPSDPAMDL
modifications: Q20
notes: human wild-type Huntingtin (Q20, residues 1-548) produced by in vitro transcription/translation
effect on fast axonal transport (fast axonal transport; perfused alone): showed no effect on either direction of fast axonal transport
